Broadly, the Kd is the concentration at which binding is half-saturated.

We go through 3 molecules from article doi:10.1101/2023.07.18.549521 (bioRxiv, 2023).

The labels stand for the following.
B1: full-length tepsin-GST (residues 1-525) (natural protein)
chain: MAAAPPLRDRLSFLHRLPILLKGTSDDDVPCPGYLFEEIAKISHESPGSSQCLLEYLLSRLHSSSGHGKLKVLKILLYLCSHGSSFFLLILKRNSAFIQEAAAFAGPPDPLHGNSLYQKVRAAAQDLGSTLFSDTVLPLAPSQPLGTPPATGMGSQARPHSTLQGFGYSKEHGRTAVRHQPGQAGGGWDELDSGPSSQNSSQNSDLSRVSDSGSHSGSDSHSGASREPGDLAERVEVVALSDCQQELSLVRTVTRGPRAFLSREEAQHFIKACGLLNCEAVLQLLTCHLRGTSECTQLRALCAIASLGSSDLLPQEHILLRTRPWLQELSMGSPGPVTNKATKILRHFEASCGQLSPARGTSAEPGPTAALPGPSDLLTDAVPLPGSQVFLQPLSSTPVSSRSPAPSSGMPSSPVPTPPPDASPIPAPGDPSEAEARLAESRRWRPERIPGGTDSPKRGPSSCAWSRDSLFAGMELVACPRLVGAGAAAGESCPDAPRAPQTSSQRTAAKEPPGSEPSAFAFLNA
B2: AP-4 β4 appendage domain (residues 615-739) (domain or fragment, UniProt Q9Y6B7 615-739, looked up)
chain: SGALMLVPNRQLTADYFEKTWLSLKVAHQQVLPWRGEFHPDTLQMALQVVNIQTIAMSRAGSRPWKAYLSAQDDTGCLFLTELLLEPGNSEMQISVKQNEARTETLNSFISVLETVIGTIEEIKS

For experiment [1], the target named is T1, His6x-LC3B (residues 1-120) (UniProt Q9GZQ8 1-120). The experiment in a line: ITC. For orientation: In ITC the heat of successive injections is recorded.
Experiment [2] concerns the target T1, His6x-LC3B (residues 1-120). Description: pull-down.
The target of experiment [3] is B1. The experiment in a line: pull-down.

The molecule SGGGWDELDS [tepsin LIR motif peptide (residues 185-193)] showed a Kd in experiment [1] of 44.4 µM.

As to B1, the binding result in experiment [2] was “binds”.

For the molecule B2, the binding result in experiment [3] is recorded as “binds”.
